Substitutions are numbered along the chain they refer to.
What was measured:
Experiment in all cases: FACS, mutant-EGFP on HEK293F cells
[1] = biological target: T1, KW27-13 (human CD39 mutant, C-terminal EGFP) (human, UniProt P49961 1-510)
T1 construct: expressed on HEK293F cells; not shown: C-terminal EGFP fusion (vector pCMV3-GFPSpark)
T1 chain: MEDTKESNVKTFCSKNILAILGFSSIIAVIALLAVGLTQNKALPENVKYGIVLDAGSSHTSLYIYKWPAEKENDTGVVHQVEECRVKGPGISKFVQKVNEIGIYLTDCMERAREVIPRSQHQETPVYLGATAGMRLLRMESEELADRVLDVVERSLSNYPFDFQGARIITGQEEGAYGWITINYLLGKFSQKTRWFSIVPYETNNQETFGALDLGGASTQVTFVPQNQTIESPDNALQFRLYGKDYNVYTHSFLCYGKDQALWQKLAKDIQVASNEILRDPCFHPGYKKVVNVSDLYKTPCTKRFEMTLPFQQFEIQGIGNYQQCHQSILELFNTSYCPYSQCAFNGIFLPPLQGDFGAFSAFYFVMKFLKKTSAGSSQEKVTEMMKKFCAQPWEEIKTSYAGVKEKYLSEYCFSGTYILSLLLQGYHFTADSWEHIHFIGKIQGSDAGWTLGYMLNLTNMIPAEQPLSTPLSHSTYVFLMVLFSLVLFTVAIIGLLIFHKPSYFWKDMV
Summary of the method: (§1)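 Relative binding, the ratio of AlexaFluor647 to GFP signal, was read by flow cytometry with labelled anti-hIgG. Antibody ran as an 11-point, 3-fold series starting at 100 nM. Targets were CD39 mutant–GFP fusions expressed transiently in HEK293F cells for 3 days.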

[2] = biological target: T2, KW27-10 (human CD39 mutant, C-terminal EGFP) (human, UniProt P49961 1-510)
T2 construct: expressed on HEK293F cells; not shown: C-terminal EGFP fusion (vector pCMV3-GFPSpark)
T2 chain: T1 chain with K288E, K289A, V290A, E315R, K371N, K372L, A375E, G376K, S377V
Summary of the method: as §1

[3] = biological target: T3, KW27-12 (human CD39 mutant, C-terminal EGFP) (human, UniProt P49961 1-510)
T3 construct: expressed on HEK293F cells; not shown: C-terminal EGFP fusion (vector pCMV3-GFPSpark)
T3 chain: T1 chain with K371N, K372L, A375E, G376K, S377V, H428A, T430A, A431D, D432A
Summary of the method: as §1

[4] = biological target: T4, KW27-8 (human CD39 mutant, C-terminal EGFP) (human, UniProt P49961 1-510)
T4 construct: expressed on HEK293F cells; not shown: C-terminal EGFP fusion (vector pCMV3-GFPSpark)
T4 chain: T1 chain with A273S, N275A, I277S, R279A, K371N, K372L, A375E, G376K, S377V
Summary of the method: as §1

Measured: binding result

B1: Antibody T895 (antibody, V domains shown)
VH: EVQLQQSGPELVKPGASVKMSCKASGYTFTDYNMHWVKQSHGRTLEWIGYIVPLNGGSTFNQKFKGRATLTVNTSSRTAYMELRSLTSEDSAAYYCARGGTRFAYWGQGTLVTVSA
VL: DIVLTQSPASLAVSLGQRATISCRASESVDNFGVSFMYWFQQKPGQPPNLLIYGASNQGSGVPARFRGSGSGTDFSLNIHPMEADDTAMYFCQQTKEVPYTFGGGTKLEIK
notes: also called 31895
binds: all assays above

B2: Antibody 9-8B (antibody, V domains shown)
VH: QIQLVQSGPELKKPGETVKISCKASGYTFTHYGMNWVKQAPGKGLKWMGWINTYTGELTYADDFKGRFAFSLETSASTAYLQINNLKNEDTATYFCARRAYYRYDYVMDYWGQGTSVTVSS
VL: DIVMTQSQKFMSTSVGDRVSVTCKASHNVGTNVAWYQQKPGQSPKALIYSASYRYSGVPGRFTGSGSGTDFTLTISNVQSEDLAEYFCHQYNNYPYTFGGGTKLEIK
binds: all assays above

B3: c34 (antibody, V domains shown)
VH: EIQVQQSGPELVKPGASVKVSCKASGYSFTDYNMYWVKQSHGKSLEWIGFIDPYNGYTSYNQKFKGKATLTIDKSSSTAFMHLNSLTSEDSAVYYCAIYGYDDAYYFDYWGQGTTLTVSS
VL: QIVLTQSPAIMSASPGEKVTITCSATSSVSYMHWFRQKPGTSPKLWIYSTSNLASGVPARFSGSGSGTSYSLTISRMAAEDAATYYCQQRITYPFTFGSGTKLEIT
notes: its making is not described; also called chimeric antibody c34
binds: all assays above

B4: c35 (antibody, V domains shown)
VH: EVRLQQSGAELVKPGASVKLSCTASGFNIEDTYVHWMKQRPEQGLEWIGRIDPAIDNSKYDPKFQGKATITAVSSSNTAYLQLSSLTSEDTAVYYCALYDGYNVYAMDYWGQGTSVTVSS
VL: DIVMTQAAFSNPVTLGTSASISCRSSKNLLHSNGITYLYWYLQRPGQSPQLLIYRASTLASGVPNRFSGSESGTDFTLRISRVEAEDVGVYYCAQLLELPHTFGGGTKLEIK
notes: its making is not described; also called chimeric antibody c35
binds: all assays above

B5: hu23.H5L5 (antibody, V domains shown)
VH: QVQLVQSGAEVKKPGASVKVSCKASGYNLKDTFLHWVRQAPGQGLEWMGRIDPANGNIKYDPKFQGRVTITADTSANTAYMELISLRSEDTAVYYCANSPYYYGSGYRIFDVWGQGTTVTVSS
VL: QIVLTQSPATLSLSPGERATLSCSAFSSVNYMHWYQQKPGQAPRLLIYTTSNLASGIPTRFSGSGSGTSYTLTISSLEPEDFAVYYCQQRSTYPFTFGQGTKLEIK
notes: humanized c23
binds: all assays above

— patent US20210388105A1 (ELPISCIENCE SUZHOU BIOPHARMA, published 2021)
